Among the data in article PMC7960994 are stoichiometry N values, retold here.

Assay [1] addresses D474A-PfCpn60 (Plasmodium falciparum mitochondrial chaperonin 60, ATP hydrolysis-deficient mutant) (Plasmodium falciparum (isolate FCR-3/Gambia)). The assay is described as follows: negative stain electron microscopy.
Assay [2] shares this target. The assay is described as follows: crystal structure; D474A-PfCpn60 with bound ATP; crystals from phosphate citrate buffer pH 4.4, 13% isopropanol, lithium sulfate; 3.69 Å; one heptameric ring in the asymmetric unit.

For the substance “D474A-PfCpn60 (Plasmodium falciparum mitochondrial chaperonin 60, ATP hydrolysis-deficient mutant) (domain or fragment)”, the stoichiometry N in assay [1] was found to be 7; in assay [2], 14.

For orientation: stoichiometry N means the number of molecules, sites or subunits per partner or assembly.
